Consider three molecules from patent CN114984227A (BIO THERA SOLUTIONS LTD, dated 2022).

The target of this assay is T1, 人TIGIT (TIGIT-Jurkat细胞表面) (human, UniProt Q495A1 22-244).
T1 construct: whole, on cells
T1 sequence (looked up): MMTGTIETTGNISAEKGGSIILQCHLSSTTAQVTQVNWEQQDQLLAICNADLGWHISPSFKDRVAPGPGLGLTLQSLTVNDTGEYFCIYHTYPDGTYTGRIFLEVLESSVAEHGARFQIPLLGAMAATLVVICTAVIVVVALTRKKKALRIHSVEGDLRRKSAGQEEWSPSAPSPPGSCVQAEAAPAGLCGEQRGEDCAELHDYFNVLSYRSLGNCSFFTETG
Kind of assay: flow cytometry competition: blocking of PVR-Fc-bio (12.5 nM) binding to TIGIT-Jurkat cells.

B1: 参照抗体Tiragolumab (antibody, V domains shown)
VH: EVQLQQSGPGLVKPSQTLSLTCAISGDSVSSNSAAWNWIRQSPSRGLEWLGKTYYRFKWYSDYAVSVKGRITINPDTSKNQFSLQLNSVTPEDTAVFYCTRESTTYDLLAGPFDYWGQGTLVTVSS
VL: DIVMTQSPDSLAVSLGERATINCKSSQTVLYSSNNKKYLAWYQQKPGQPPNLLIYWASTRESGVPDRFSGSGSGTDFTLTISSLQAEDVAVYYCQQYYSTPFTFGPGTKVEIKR
In the case of B1, the IC50 turned out to be 2.82 nM.

B2: 抗体h10D8OF (antibody, human IgG1, kappa, V domains shown)
VH: QVQLVESGGGVVQPGRSLRLDCKASGFTFSSYGMSWVRQAPGKGLELVATINSNGGSTYYPDSVKGRFTISRDNSKNTLFLQMNSLRAEDTAVYYCARLGTGTLGFAYWGQGTLVTVSS
VL: EIVMTQSPATLSLSPGERATLSCKASQDVKTAVSWYQQKPGQAPRLLIYWASTRATGIPARFSGSGSGTDYTLTISSLEPEDFAVYYCQQHYSTPWTFGQGTKVEIKR
notes: also called 抗TIGIT抗体
Regarding B2, the IC50 came out at 0.441 nM.

B3: 抗体h10D8OFKF (antibody, human IgG1, kappa, V domains shown)
VH: B2 VH
VL: B2 VL
notes: also called 抗TIGIT抗体
Turning to B3, the IC50 came to 0.742 nM.
